Measured values: article PMC9655642

System: alpha-CTD (RNA polymerase alpha subunit C-terminal domain) (Bacillus licheniformis B1391)
Assay: fluorescence polarization
Settings: FP: 25 mM Tris-HCl, 3 mM NaCl, 3 mM MgCl2, 0.1 mM DTT, room temp 20 min, 100 nM probe, 30 ug protein in 100 uL; EMSA: 10 nM probe, 25 C 20 min; footprinting: …

Row | Substance | binding signal (% polarization change (DPC))
1 | PtrxA-UP5-5D (five distal subsite repeats) | 35
2 | PtrxA-UP5-5P (five proximal subsite repeats) | 52
